The source of these data is publication PMC8086144, “A novel peptide antagonist of the human growth hormone receptor” (The Journal of Biological Chemistry, 2021).

For data set [1], the target named is T1, trypsin (bovine pancreas) (Bos taurus, UniProt P00760).
T1 construct: purchased Sigma-Aldrich; host or cells: bovine pancreas
T1 sequence (P00760 24-246): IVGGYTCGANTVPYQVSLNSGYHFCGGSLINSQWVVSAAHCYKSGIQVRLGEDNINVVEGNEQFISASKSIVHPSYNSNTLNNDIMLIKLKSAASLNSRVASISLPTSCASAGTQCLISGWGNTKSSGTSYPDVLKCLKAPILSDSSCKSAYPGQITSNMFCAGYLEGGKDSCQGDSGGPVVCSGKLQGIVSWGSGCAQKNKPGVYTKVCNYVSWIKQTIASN
The experiment in a line: Trypsin degradation of hGH and pegvisomant (HPLC and Western blot). The conditions noted are these: 4 μg/ml trypsin in digestion buffer pH 7.8, 37 °C, up to 8 h, 25 μg/ml protein. In kind it is in vitro ADME. The procedure:
(§1) The samples were then incubated at 95 °C for 5 min before being cooled on ice and stored at −80 °C. […] Following separation, the proteins were transferred to polyvinylidine difluoride membranes and subjected to Western blot analysis (vide infra). The fraction of intact protein was quantified by measuring the integrated density of each band contained within regions of the gel corresponding to “intact” or “degraded” proteins. […] These reactions were allowed to incubate at 37 °C for up to 8 h, with samples removed at selected timepoints for analysis. Following incubation, the samples were either mixed with 5× Laemmli loading buffer and subjected to SDS-PAGE for Western blot analysis (Fig. S5) or directly injected onto a C18 reversed-phase column for analysis by HPLC as described above for the S1H peptide (Fig. S4).
In general terms: A western blot detects proteins with antibodies after separation by electrophoresis.

Another data set deals with T2, hPRLR (Homo sapiens, UniProt P16471).
T2 construct: T84 cells express high levels of hPRLR relative to hGHR (>1300:1); host or cells: T84 (human colon cancer), MALME-3M (human melanoma)
T2 sequence (P16471 25-622): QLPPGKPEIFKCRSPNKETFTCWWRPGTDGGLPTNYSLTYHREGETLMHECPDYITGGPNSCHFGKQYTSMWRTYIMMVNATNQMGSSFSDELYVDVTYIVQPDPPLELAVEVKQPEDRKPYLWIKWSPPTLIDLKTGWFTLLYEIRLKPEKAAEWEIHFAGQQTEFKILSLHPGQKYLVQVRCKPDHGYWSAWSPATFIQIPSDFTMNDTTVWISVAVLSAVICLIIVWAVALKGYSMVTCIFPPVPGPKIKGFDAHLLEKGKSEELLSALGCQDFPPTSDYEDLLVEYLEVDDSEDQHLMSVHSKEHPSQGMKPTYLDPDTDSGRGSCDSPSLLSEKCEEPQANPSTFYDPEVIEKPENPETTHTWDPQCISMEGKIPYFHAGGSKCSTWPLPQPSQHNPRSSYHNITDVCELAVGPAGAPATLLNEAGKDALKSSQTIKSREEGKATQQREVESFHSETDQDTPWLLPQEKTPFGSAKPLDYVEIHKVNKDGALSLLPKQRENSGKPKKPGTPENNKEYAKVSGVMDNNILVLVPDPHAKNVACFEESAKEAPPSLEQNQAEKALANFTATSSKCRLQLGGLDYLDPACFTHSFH
The data set can be described thus: hGH-mediated pSTAT5 in T84 cells, Western blot. The data set is classed as cell-based. The conditions noted are these: 50 nM inhibitor with 2.5 nM hGH, 20 min. The procedure: SK-MEL-28, MALME-3M, and T84 cells were grown and maintained in Eagle's Minimal Essential Medium. IM9 and L cells were grown in RPMI-1640 media and Dulbecco's modified Eagle's medium, respectively. All growth media was supplemented with 10% fetal bovine serum and 1× antibiotic-antimycotic […] solution. Cells were grown at 37 °C under a 5% CO2 atmosphere in a humidified incubator, and growth media was replaced every 48 h during incubation. No hGH was present in or added to the growth media unless specifically indicated. […]
Following treatment, the cells were harvested at the indicated time points, and the total protein was extracted. […] Sample protein concentration was quantified using a Bradford assay with bovine serum albumin as the protein standard. Absorbance at 595 nm was measured using a Spectramax 250 multimode plate reader (Molecular Devices) and processed using SoftmaxPro v4.7.1 software.
Cytosolic fractions from treated cells were thawed on ice, and 80 μg protein was loaded onto polyacrylamide gels for separation by SDS-PAGE. […] Chemiluminescence signals were detected using a GelDoc (BioRad) fluorescence imager. […] Percent inhibition was then measured by subtracting the pSTAT5 band intensity in each lane from the pSTAT5 band intensity of hGH-treated samples. […]

Data set [2] is described as follows: Stability of hGH and pegvisomant in human serum (Western blot). In kind it is in vitro ADME. The conditions noted are these: RPMI with 25% (v/v) heat-inactivated human AB serum, 37 °C, 25 μg/ml protein, SDS-PAGE/Western blot densitometry, average of three experiments. The procedure: as §1
Data set [3] has as its target T3, human prolactin receptor (human (endogenous in T84, MALME-3M)) (UniProt P16471).
T3 sequence: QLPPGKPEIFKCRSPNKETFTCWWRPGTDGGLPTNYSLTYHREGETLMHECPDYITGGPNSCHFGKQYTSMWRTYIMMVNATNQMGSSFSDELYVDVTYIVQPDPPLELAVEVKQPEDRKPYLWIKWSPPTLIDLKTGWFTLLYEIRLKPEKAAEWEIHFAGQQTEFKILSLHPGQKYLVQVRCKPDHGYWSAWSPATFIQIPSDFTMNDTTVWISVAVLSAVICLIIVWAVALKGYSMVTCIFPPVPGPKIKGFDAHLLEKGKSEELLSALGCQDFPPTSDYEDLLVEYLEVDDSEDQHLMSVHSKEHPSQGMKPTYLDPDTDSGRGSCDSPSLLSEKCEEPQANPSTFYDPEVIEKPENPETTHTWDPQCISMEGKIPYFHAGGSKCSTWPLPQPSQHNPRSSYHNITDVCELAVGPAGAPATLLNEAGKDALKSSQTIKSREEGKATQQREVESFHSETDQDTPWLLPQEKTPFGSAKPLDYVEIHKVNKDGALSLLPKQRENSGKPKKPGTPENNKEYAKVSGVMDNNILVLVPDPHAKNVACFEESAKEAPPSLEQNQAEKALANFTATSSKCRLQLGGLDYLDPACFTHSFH

Data set [4] has as its target human growth hormone receptor (human (endogenous in SK-MEL-28, MALME-3M, IM9)) (UniProt P10912).
The target in data set [5] is T4, mouse GHR (mouse (endogenous in L fibroblasts)) (UniProt P16882).
T4 sequence: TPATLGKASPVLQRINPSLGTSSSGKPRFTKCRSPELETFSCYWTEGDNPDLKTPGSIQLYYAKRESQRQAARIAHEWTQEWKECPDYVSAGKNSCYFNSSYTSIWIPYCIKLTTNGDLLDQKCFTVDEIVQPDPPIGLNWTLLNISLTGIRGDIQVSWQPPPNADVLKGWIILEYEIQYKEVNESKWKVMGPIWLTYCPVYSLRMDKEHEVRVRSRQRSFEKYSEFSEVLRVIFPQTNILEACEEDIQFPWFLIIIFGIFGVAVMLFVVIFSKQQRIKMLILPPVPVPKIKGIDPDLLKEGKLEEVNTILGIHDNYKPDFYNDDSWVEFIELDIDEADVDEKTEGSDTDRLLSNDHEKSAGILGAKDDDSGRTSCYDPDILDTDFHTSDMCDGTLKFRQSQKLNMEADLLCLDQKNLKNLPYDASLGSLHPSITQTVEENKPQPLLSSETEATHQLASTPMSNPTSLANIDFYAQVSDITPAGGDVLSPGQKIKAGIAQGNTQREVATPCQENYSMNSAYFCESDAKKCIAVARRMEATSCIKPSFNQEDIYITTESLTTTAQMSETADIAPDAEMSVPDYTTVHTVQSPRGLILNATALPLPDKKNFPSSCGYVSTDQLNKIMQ

Data set [6] concerns the target human growth hormone receptor (human (endogenous in SK-MEL-28, MALME-3M, IM9)) (UniProt P10912). The source holds these as a separate data set.

Chain of human growth hormone receptor (human (endogenous in SK-MEL-28, MALME-3M, IM9)) (P10912 19-638): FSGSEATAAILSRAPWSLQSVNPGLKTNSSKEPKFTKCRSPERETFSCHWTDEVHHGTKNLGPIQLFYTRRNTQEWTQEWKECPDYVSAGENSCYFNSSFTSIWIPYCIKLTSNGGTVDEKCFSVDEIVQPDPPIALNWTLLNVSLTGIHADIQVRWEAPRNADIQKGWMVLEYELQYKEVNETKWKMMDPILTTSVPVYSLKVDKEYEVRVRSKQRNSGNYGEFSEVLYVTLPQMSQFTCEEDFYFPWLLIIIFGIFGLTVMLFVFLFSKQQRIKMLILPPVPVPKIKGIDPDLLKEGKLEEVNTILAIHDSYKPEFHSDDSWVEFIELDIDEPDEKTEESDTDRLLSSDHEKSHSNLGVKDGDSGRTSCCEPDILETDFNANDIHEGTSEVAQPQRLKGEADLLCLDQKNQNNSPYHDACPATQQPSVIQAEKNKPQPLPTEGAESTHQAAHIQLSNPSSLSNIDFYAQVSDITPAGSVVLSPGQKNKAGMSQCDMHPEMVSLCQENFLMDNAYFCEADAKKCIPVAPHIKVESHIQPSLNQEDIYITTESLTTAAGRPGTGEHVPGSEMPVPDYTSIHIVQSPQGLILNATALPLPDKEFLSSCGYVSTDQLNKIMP

Consider pegvisomant [reference compound], for which, in data set [1], the “time to full degradation by trypsin” value is 4 h. Besides, the “suppression of hGH-mediated phosphorylation of STAT5” value on hPRLR came out at 27%. Also, in data set [2], the “protein remaining intact after 48 h in human serum” value amounted to 76%.

B1: S1H peptide (site 1-binding helix) (peptide)
peptide: Ac-YIPKEQKYSFLQNPQT-NH2
As for B1, the inhibition of hPRL-induced pSTAT5 (Western blot) in MALME-3M cells treated with 2.5 nM hPRL and S1H; pair blocked: hPRL with hPRLR in data set [3] was found to be 49%. The inhibition of hGH-induced pSTAT5 (Western blot) in MALME-3M cells treated with 2.5 nM hGH and 50 nM S1H; pair blocked: hGH with hGHR in data set [4] worked out at 40%. Moreover, in data set [5], the suppression of hGH-mediated pSTAT5 (Western blot) in mouse L fibroblasts co-treated with GH and 200 nM S1H; pair blocked: GH with the GHR of the L cells is 36%. In data set [6], the suppression of hGH-mediated pSTAT5 (Western blot) in IM9 cells co-treated with 2.5 nM hGH and 200 nM S1H; pair blocked: hGH with hGHR turned out to be 67%; the suppression of hGH-mediated pSTAT5 (Western blot) in MALME-3M cells co-treated with 2.5 nM hGH and 200 nM S1H; pair blocked: hGH with hGHR was 56%; the suppression of hGH-mediated pSTAT5 (Western blot) in SK-MEL-28 cells co-treated with 2.5 nM hGH and S1H, 100 nM (46%) to 200 nM (67%); pair blocked: hGH with hGHR came out at 67%.
